The labels stand for the following.
B1: library; numbered along this chain (parent)
chain: MAAAAAAAAEQQSSNGPVKKSMREKAVERRSVNKEHNSNFKAGYIPIDEDRLHKTGLRGRKGNLAICVIILLFILAVINLIITLVIWAVIRIGPNGCDSMEFHESGLLRFKQVSDMGVIHPLYKSTVGGRRNENLVITGNNQPIVFQQGTTKLSVENNKTSITSDIGMQFFDPRTQNILFSTDYETHEFHLPSGVKSLNVQKASTERITSNATSDLNIKVDGRAIVRGNEGVFIMGKTIEFHMGGNMELKAENSIILNGSVMVSTTRLPSSSSGDQLGSGDWVRYKLCMCADGTLFKVQVTSQNMGCQISDNPCGNTH

In this data set the parent is B1. Description: SGCB cell-surface expression functional score (HA stain, bin4 vs bin1, normalised to synonymous) (log10 ratio); higher = more cell-surface SGCB (functional). The procedure, abridged: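 Sorting and sequencing yield the functional score, defined as the log ratio of a variant's highest-bin frequency to its lowest-bin frequency, with the median taken over codons and replicate transductions. The libraries, codon-saturation sets of HA-tagged, YFP-fused human beta-sarcoglycan, went into HEK293 cells stably carrying alpha-, gamma- and delta-sarcoglycan by duplicate lentiviral transduction at MOI <0.1. Cells were stained on ice with Alexa Fluor 647 anti-HA, fixed and split into four 5% intensity bins, and synonymous variants were scaled per section to mean 0, SD 0.5.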
Consider MAAAAAAAAEQQSSNGPVKKSMREKAVERRSVNKEHNSNFKAGYIPIDEDRLHKTGLRGRKGNLAICVIILLFILAVINLIITLVIWAVIRIGPNGCDSMEFHESGLLRFKQVSDMGVIHPLYKSTVGGRRNENLVITGNNQPIVFQQGTTKLSVENNKTSITSDIGMQFFDPRTQNILFSTDYETHEFHLPSGVKSLNVQKASTERITSNATSDLNIKVDGAAIVRGNEGVFIMGKTIEFHMGGNMELKAENSIILNGSVMVSTTRLPSSSSGDQLGSGDWVRYKLCMCADGTLFKVQVTSQNMGCQISDNPCGNTH [R223A], for which the “SGCB cell-surface expression functional score (log10)” value was found to be 0.72.

Consider MAAAAAAAAEQQSSNGPVKKSMREKAVERRSVNKEHNSNFKAGYIPIDEDRLHKTGLRGRKGNLAICVIILLFILAVINLIITLVIWAVIRIGPNGCDSMEFHESGLLRFKQVSDMGVIHPLYKSTVGGRRNENLVITGNNQPIVFQQGTTKLSVENNKTSITSDIGMQFFDPRTQNILFSTDYETHEFHLPSGVKSLNVQKASTERITSNATSDLNIKVDPRAIVRGNEGVFIMGKTIEFHMGGNMELKAENSIILNGSVMVSTTRLPSSSSGDQLGSGDWVRYKLCMCADGTLFKVQVTSQNMGCQISDNPCGNTH [G222P], for which the “SGCB cell-surface expression functional score (log10)” value was -1.42.

Take MAAAAAAAAEQQSSNGPVKKSMREKAVERRSVNKEHNSNFKAGYIPIDEDRLHKTGLRGRKGNLAICVIILLFILAVINLIITLVIWAVIRIGPNGCDSMEFHESGLLRFKQVSDMGVIHPLYKSTVGGRRNENLVITGNNQPIVFQQGTTKLSVENNKTSITSDIGMQFFDPRTQNILFSTDYETHEFHLPSGVKSLNVQKASTERITSNATSDLNIKVDTRAIVRGNEGVFIMGKTIEFHMGGNMELKAENSIILNGSVMVSTTRLPSSSSGDQLGSGDWVRYKLCMCADGTLFKVQVTSQNMGCQISDNPCGNTH [G222T]: the “SGCB cell-surface expression functional score (log10)” value turned out to be 0.6.

Consider MAAAAAAAAEQQSSNGPVKKSMREKAVERRSVNKEHNSNFKAGYIPIDEDRLHKTGLRGRKGNLAICVIILLFILAVINLIITLVIWAVIRIGPNGCDSMEFHESGLLRFKQVSDMGVIHPLYKSTVGGRRNENLVITGNNQPIVFQQGTTKLSVENNKTSITSDIGMQFFDPRTQNILFSTDYETHEFHLPSGVKSLNVQKASTERITSNATSDLNIKVDWRAIVRGNEGVFIMGKTIEFHMGGNMELKAENSIILNGSVMVSTTRLPSSSSGDQLGSGDWVRYKLCMCADGTLFKVQVTSQNMGCQISDNPCGNTH [G222W], for which the “SGCB cell-surface expression functional score (log10)” value is 0.49.

MAAAAAAAAEQQSSNGPVKKSMREKAVERRSVNKEHNSNFKAGYIPIDEDRLHKTGLRGRKGNLAICVIILLFILAVINLIITLVIWAVIRIGPNGCDSMEFHESGLLRFKQVSDMGVIHPLYKSTVGGRRNENLVITGNNQPIVFQQGTTKLSVENNKTSITSDIGMQFFDPRTQNILFSTDYETHEFHLPSGVKSLNVQKASTERITSNATSDLNIKVDHRAIVRGNEGVFIMGKTIEFHMGGNMELKAENSIILNGSVMVSTTRLPSSSSGDQLGSGDWVRYKLCMCADGTLFKVQVTSQNMGCQISDNPCGNTH [G222H]: the “SGCB cell-surface expression functional score (log10)” value was determined as 1.21.

Turning to MAAAAAAAAEQQSSNGPVKKSMREKAVERRSVNKEHNSNFKAGYIPIDEDRLHKTGLRGRKGNLAICVIILLFILAVINLIITLVIWAVIRIGPNGCDSMEFHESGLLRFKQVSDMGVIHPLYKSTVGGRRNENLVITGNNQPIVFQQGTTKLSVENNKTSITSDIGMQFFDPRTQNILFSTDYETHEFHLPSGVKSLNVQKASTERITSNATSDLNIKVDSRAIVRGNEGVFIMGKTIEFHMGGNMELKAENSIILNGSVMVSTTRLPSSSSGDQLGSGDWVRYKLCMCADGTLFKVQVTSQNMGCQISDNPCGNTH [G222S], the “SGCB cell-surface expression functional score (log10)” value is 0.06.

Turning to MAAAAAAAAEQQSSNGPVKKSMREKAVERRSVNKEHNSNFKAGYIPIDEDRLHKTGLRGRKGNLAICVIILLFILAVINLIITLVIWAVIRIGPNGCDSMEFHESGLLRFKQVSDMGVIHPLYKSTVGGRRNENLVITGNNQPIVFQQGTTKLSVENNKTSITSDIGMQFFDPRTQNILFSTDYETHEFHLPSGVKSLNVQKASTERITSNATSDLNIKVDRRAIVRGNEGVFIMGKTIEFHMGGNMELKAENSIILNGSVMVSTTRLPSSSSGDQLGSGDWVRYKLCMCADGTLFKVQVTSQNMGCQISDNPCGNTH [G222R], the “SGCB cell-surface expression functional score (log10)” value is -0.06.

Regarding MAAAAAAAAEQQSSNGPVKKSMREKAVERRSVNKEHNSNFKAGYIPIDEDRLHKTGLRGRKGNLAICVIILLFILAVINLIITLVIWAVIRIGPNGCDSMEFHESGLLRFKQVSDMGVIHPLYKSTVGGRRNENLVITGNNQPIVFQQGTTKLSVENNKTSITSDIGMQFFDPRTQNILFSTDYETHEFHLPSGVKSLNVQKASTERITSNATSDLNIKVDKRAIVRGNEGVFIMGKTIEFHMGGNMELKAENSIILNGSVMVSTTRLPSSSSGDQLGSGDWVRYKLCMCADGTLFKVQVTSQNMGCQISDNPCGNTH [G222K], the “SGCB cell-surface expression functional score (log10)” value came out at 0.81.

With MAAAAAAAAEQQSSNGPVKKSMREKAVERRSVNKEHNSNFKAGYIPIDEDRLHKTGLRGRKGNLAICVIILLFILAVINLIITLVIWAVIRIGPNGCDSMEFHESGLLRFKQVSDMGVIHPLYKSTVGGRRNENLVITGNNQPIVFQQGTTKLSVENNKTSITSDIGMQFFDPRTQNILFSTDYETHEFHLPSGVKSLNVQKASTERITSNATSDLNIKVDCRAIVRGNEGVFIMGKTIEFHMGGNMELKAENSIILNGSVMVSTTRLPSSSSGDQLGSGDWVRYKLCMCADGTLFKVQVTSQNMGCQISDNPCGNTH [G222C], the “SGCB cell-surface expression functional score (log10)” value was found to be 0.58.

Values taken from the supplement of paper PMC10266784.
